{"source": "paper PMC2933578", "about": "“Mutational analysis of an archaeal minichromosome maintenance protein exterior hairpin reveals critical residues for helicase activity and DNA binding” (BMC Molecular Biology, 2010)", "key": {"[1]": {"molecular_target": "ssoMCM mutant M7 (ED327AA) (Sulfolobus solfataricus) (UniProt Q9UXG1)", "test": "SEC; Superose 6 size exclusion column, 250 mM NaCl; ~0.5 mg of protein; markers ferritin (440 kD) and aldolase (158 kD); self-association to the hexamer"}, "[2]": {"substrate": "Nc1ncnc2c1ncn2[C@@H]1O[C@H](COP(=O)(O)OP(=O)(O)OP(=O)(O)O)[C@@H](O)[C@H]1O", "test": "EnzChek phosphate release ATPase assay", "format": "biochemical, Saccharolobus solfataricus", "settings": "no DNA, per monomeric MCM subunit, unit nM", "excerpt": "EnzChek phosphate release ATPase assay on ssoMCM"}, "[3]": {"molecular_target": "the molecule itself", "test": "SEC; Superose 6 size exclusion column, 250 mM NaCl; ~0.5 mg of protein; markers ferritin (440 kD) and aldolase (158 kD); self-association to the hexamer"}}}
{"molecule": "ssoMCM mutant M7 (ED327AA) (from UniProt Q9UXG1 1-686) (enzyme)", "values": [{"measurement": "stoichiometry N", "setting": "[1]", "result": 6}]}
{"molecule": "ssoMCM mutant M3 (L325A) (enzyme, Sulfolobus solfataricus, UniProt Q9UXG1 1-686, looked up, MCM of Sulfolobus solfataricus with L325A; source: cloned and purified (Resource Q anion exchange, size-exclusion chromatography) as described previously [15]) MEIPSKQIDYRDVFIEFLTTFKGNNNQNKYIERINELVAYRKKSLIIEFSDVLSFNENLAYEIINNTKIILPILEGALYDHILQLDPTYQRDIEKVHVRIVGIPRVIELRKIRSTDIGKLITIDGILVKVTPVKERIYKATYKHIHPDCMQEFEWPEDEEMPEVLEMPTICPKCGKPGQFRLIPEKTKLIDWQKAVIQERPEEVPSGQLPRQLEIILEDDLVDSARPGDRVKVTGILDIKQDSPVKRGSRAVFDIYMKVSSIEVSQKVLDEVIISEEDEKKIKDLAKDPWIRDRIISSIAPSIYGHWELKEALALALFGGVPKVAEDTRIRGDIHILIIGDPGTAKSQMLQFISRVAPRAVYTTGKGSTAAGLTAAVVREKGTGEYYLEAGALVLADGGIAVIDEIDKMRDEDRVAIHEAMEQQTVSIAKAGIVAKLNARAAVIAAGNPKFGRYISERPVSDNINLPPTILSRFDLIFILKDQPGEQDRELANYILDVHSGKSTKNIIDIDTLRKYIAYARKYVTPKITSEAKNLITDFFVEMRKKSSETPDSPILITPRQLEALIRISEAYAKMALKAEVTREDAERAINIMRLFLESVGVDMESGKIDIDTIMTGKPKSAREKMMKIIEIIDSLAVSSECAKVKDILKEAQQVGIEKSNIEKLLTDMRKSGIIYEAKPECYKKV", "values": [{"measurement": "Km", "setting": "[2]; mutant M3", "result": "270 ± 40", "unit": "nM"}, {"measurement": "kcat", "setting": "[2]; mutant M3", "result": "0.0783 ± 0.005", "unit": "s⁻¹"}, {"measurement": "stoichiometry N", "setting": "[3]", "result": 6}]}
{"molecule": "ssoMCM mutant M4 (VL324AA) (enzyme, Sulfolobus solfataricus, UniProt Q9UXG1 1-686, looked up, MCM of Sulfolobus solfataricus with the double mutation VL324AA (V324 and L325 to alanine); source: cloned and purified (Resource Q anion exchange, size-exclusion chromatography) as described previously [15]) MEIPSKQIDYRDVFIEFLTTFKGNNNQNKYIERINELVAYRKKSLIIEFSDVLSFNENLAYEIINNTKIILPILEGALYDHILQLDPTYQRDIEKVHVRIVGIPRVIELRKIRSTDIGKLITIDGILVKVTPVKERIYKATYKHIHPDCMQEFEWPEDEEMPEVLEMPTICPKCGKPGQFRLIPEKTKLIDWQKAVIQERPEEVPSGQLPRQLEIILEDDLVDSARPGDRVKVTGILDIKQDSPVKRGSRAVFDIYMKVSSIEVSQKVLDEVIISEEDEKKIKDLAKDPWIRDRIISSIAPSIYGHWELKEALALALFGGVPKAAEDTRIRGDIHILIIGDPGTAKSQMLQFISRVAPRAVYTTGKGSTAAGLTAAVVREKGTGEYYLEAGALVLADGGIAVIDEIDKMRDEDRVAIHEAMEQQTVSIAKAGIVAKLNARAAVIAAGNPKFGRYISERPVSDNINLPPTILSRFDLIFILKDQPGEQDRELANYILDVHSGKSTKNIIDIDTLRKYIAYARKYVTPKITSEAKNLITDFFVEMRKKSSETPDSPILITPRQLEALIRISEAYAKMALKAEVTREDAERAINIMRLFLESVGVDMESGKIDIDTIMTGKPKSAREKMMKIIEIIDSLAVSSECAKVKDILKEAQQVGIEKSNIEKLLTDMRKSGIIYEAKPECYKKV", "values": [{"measurement": "Km", "setting": "[2]; mutant M4, printed VL324AA", "result": "230 ± 10", "unit": "nM"}, {"measurement": "kcat", "setting": "[2]; mutant M4, printed VL324AA", "result": "0.065 ± 0.00167", "unit": "s⁻¹"}, {"measurement": "stoichiometry N", "setting": "[3]", "result": 6}]}
